Among the data in PMC5457521 are stoichiometry N values, retold here.

Assay [1] addresses DENV2 sE FGA02 A259C, disulfide-linked dimer (Dengue virus serotype 2, strain FGA02). The experiment in a line: SEC-MALS; sE alone, ~150 ug on Superdex 200 10/300 GL, Tris 50 mM, NaCl 500 mM (pH 8.0), 0.4 ml min^−1. (In general: Size exclusion chromatography separates by hydrodynamic size, large species first.)
The target of assay [2] is DENV2 sE FGA02 L107C/A313C, disulfide-linked dimer (Dengue virus serotype 2, strain FGA02). The experiment in a line: SEC.

By stoichiometry N is commonly meant the number of molecules, sites or subunits per partner or assembly. For the substance “DENV2 sE FGA02 A259C, disulfide-linked dimer (domain or fragment)”, in assay [1], the stoichiometry N worked out at 2.
In assay [2], “DENV2 sE FGA02 L107C/A313C, disulfide-linked dimer (domain or fragment)” came in with a stoichiometry N of 2.
